According to patent publication US20250179196A1 (Janssen / Centocor, published 2025):

Assays:
[1] = biological target: T1, human IL-23R expressed on the cell surface of stably transfected iLite and HEK cell lines (human, UniProt Q5VWK5 24-629); test: flow cytometry on human IL-23R HEK cells, Expt D (8-point, 96well)
T1 construct: whole, on cells; Same receptor on two transfected cell lines; the cell line is named under assay; also called human IL-23R iLite cells; human IL-23R HEK cells
T1 sequence (looked up): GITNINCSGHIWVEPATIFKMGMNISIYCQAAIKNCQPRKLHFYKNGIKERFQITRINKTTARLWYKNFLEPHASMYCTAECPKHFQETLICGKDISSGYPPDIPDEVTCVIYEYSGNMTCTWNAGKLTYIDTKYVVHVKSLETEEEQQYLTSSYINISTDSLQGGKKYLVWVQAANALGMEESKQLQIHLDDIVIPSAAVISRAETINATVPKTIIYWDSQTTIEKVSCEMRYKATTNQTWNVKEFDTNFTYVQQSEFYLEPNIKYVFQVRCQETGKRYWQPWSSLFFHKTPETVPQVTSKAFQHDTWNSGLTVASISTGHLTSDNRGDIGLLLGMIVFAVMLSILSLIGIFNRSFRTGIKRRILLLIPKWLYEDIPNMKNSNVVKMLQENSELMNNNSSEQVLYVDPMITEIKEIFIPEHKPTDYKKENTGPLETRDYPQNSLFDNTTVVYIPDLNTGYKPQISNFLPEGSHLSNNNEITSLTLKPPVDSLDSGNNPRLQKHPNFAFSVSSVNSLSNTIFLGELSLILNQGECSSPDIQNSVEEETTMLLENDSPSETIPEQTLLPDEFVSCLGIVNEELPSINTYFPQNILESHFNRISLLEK
Procedure: HEK-IL-23R cell concentration response mAb binding (8-point, 96-well assay). […] HEK-IL-23R and HEK-parental cells (12.5 μL of each, 120000 cells total) were plated in 2× replicate on 96-well V-bottom plates (Corning, Cat #3357) into 37° C. warmed Assay medium containing serially diluted IL-23R mAbs to a final volume of 150 μL. IL-23R mAbs were allowed to bind to cells for 30 minutes, at 37° C. […] Cells were next washed twice in ice-cold stain buffer, then resuspended in a final volume of 30 μL with Sytox Green viability dye (ThermoFisher, Cat #S7020). Plates were kept on ice until run for analysis on the iQue. All washes were performed by centrifugation (800 rcf, 3 minutes) followed by flick decantation to remove supernatants. Cell-binding to HEK-IL-23R cells was measured with FlowJo, by gating for single, viable cells and determining the geometric mean fluorescence intensity (MFI) for the 647 detection antibody. Geometric mean fluorescence intensities were plotted over log mAb concentrations fitted with a dose response curve with variable slope using GraphPad Prism.

[2] = biological target: T1, human IL-23R expressed on the cell …; test: flow cytometry on human IL-23R HEK cells, Expt E (11-point, 384well)
Procedure: HEK-IL-23R cell concentration response mAb binding (11-point, 384-well assay). […] IL-23R mAbs were allowed to bind to cells for 30 minutes, at 37° C. […] Cells were next washed twice in ice-cold stain buffer, then resuspended in a final volume of 10 μL with Sytox Green viability dye (ThermoFisher, Cat #S7020). Plates were kept on ice until run for analysis on the iQue. All washes were performed by centrifugation (800 rcf, 3 minutes) followed by automated aspiration to remove supernatants with plate washers. Cell-binding to HEK-IL-23R cells was measured with FlowJo, by gating for single, viable cells and determining the geometric mean fluorescence intensity (MFI) for the 647 detection antibody. Geometric mean fluorescence intensities were plotted over log mAb concentrations fitted with a dose response curve with variable slope using GraphPad Prism.

B1: I23RB98 (antibody, mouse IgG2a, kappa, V domains shown)
VH: EFQLQQSGPELVKPGASVKMSCKASGYTFTNYYMHWVKQSHGKTIEWIGYIYPNSGDTSYNQKFKGKATLTVDKSSSTAYMELRSLTSEDSAVYTCARFGGFYDAMDYWGQGTTVTVSS
VL: DIVLTQSPAIMSASLGERVTMTCTASSSVSSSYLHWYQQKPGSSPKLWIYSTSNLASGVPARFSGSGSGTSYSLTISSMEAEDAATYYCHQYHRSPFTFGSGTKLEMKR
notes: immunization; mouse IgG2a/kappa
B1 was tested, and the EC50 [1] was 1.9 nM, the EC50 [2] was 28.7 nM and the “MFI (6.4 nM)” value [2] was 59400 MFI.

B2: I23RB57 (antibody, mouse IgG2a, kappa, V domains shown)
VH: EFQLQQSGPELVKPGASVKMSCKASGYTFTNYYMHWVKQSHGKTIEWIGYIYPNSGDTSYNQKFKGKATLTVDKSSSTAYMELRSLTSEDSAVYNCARFGGFYDAMDYWGQGTSVTVSS
VL: DIVMTQSPAIMSASLGERVTMTCTASSSVSSSYLHWYQQKPGSSPKLWIYSTSNLASGVPARFSGSGSGTSYSLTISSMEAEDAATYYCHQYHRSPFTFGSGTKLEIKR
notes: as for B1
B2 was tested, and the EC50 [1] was 5 nM, the EC50 [2] was greater than 50 nM and the “MFI (6.4 nM)” value [2] was 99600 MFI.

B3: I23RB93 (antibody, mouse IgG2a, kappa, V domains shown)
VH: QVQLKESGPGLVQPSQSLSITCTVSGFSLTSYGVHWVRQSPGKGLEWLGVIWSGVSTDYNAAFISRLSISKDNSKSQVFFKMNSLQADDTAIYYCARSRGSYYFDYWGQGTTLTVSS
VL: DIKMTQSPATLSVTPGDSVSLFCRASQSISNNLHWYQQKSHESPRLLIKYASQSISGIPSRFSGSGSGTDFTLSINSVETEDFGMYFCQQSNSWPLTFGGGTKLEIKR
notes: as for B1
For B3, the EC50 [1] was 0.5 nM, the EC50 [2] was 8.9 nM and the “MFI (6.4 nM)” value [2] was 193000 MFI.

B4: I23RB86 (antibody, mouse IgG2a, kappa, V domains shown)
VH: EVQLQQSGAELVKPGASVKLSCKASGYTFTSYWLHWVKQRPGQGLEWIGEIDPSDSYTYYNQKFKGKATLTVDKSSSTAYMQLSSLTSEDSAVYYCARSPYDYDWGAYWGQGTSVTVSS
VL: DIVMTQSPSSMSVSLGDTVSITCHASQGISSNIGWLQQKPGKSFKGLIYHGTNLEDEVPSRFSGSGSGADYSLTIGSLESEDFADYYCVQYAQFPWTFGAGTKLEMKR
notes: as for B1
In the case of B4, the EC50 [1] is reported as 1.2 nM, the EC50 [2] is reported as 22.8 nM and the “MFI (6.4 nM)” value [2] is reported as 164000 MFI.

B5: I23RB83 (antibody, mouse IgG2a, kappa, V domains shown)
VH: DVQLQESGPGLVAPSQSLSITCTVSGFSLTNYDVHWVRQSPGKGLEWLGVIWSDGSTDYNAAFISRLSFSKDNSKRQVFFKMNSLQPDDTAIYYCARNNYYRYGRNPMDYWGQGTTVTVSS
VL: DIQMTQSPASQSASLGESVTITCLASQTIGSWLAWYQQKPGKSPQLLIYAATSLADGVPSRFSGSGSGTKFSFKISSLQAEDFVSYYCQQLYSSPLTFGGGTKLEIKR
notes: as for B1
In the case of B5, the EC50 [1] is reported as 0.7 nM, the EC50 [2] is reported as 31.5 nM and the “MFI (6.4 nM)” value [2] is reported as 121000 MFI.

B6: I23RB82 (antibody, mouse IgG2a, kappa, V domains shown)
VH: QVQLKESGPGLVAPSQSLSITCTVSGFSLTNYALHWFRQSPGKGLEWLGVIWSDGSTDYNSPFISRLSISKDNSKSQVFFKMNSLQADDTAIYYCARSRSNYGRWYFDVWGAGTTLTVSS
VL: QIVLSQSHKFMSTSVGDRVSITCKASQDVSTAVAWYQQKPGQSPKLLIYSAFYRYTGVPDRFTGSGSGTDFTFTISSVQAEDLAVYYCQQHYSTPYTFGGGTKLEIKR
notes: as for B1
With B6 the EC50 [1] was 0.6 nM, the EC50 [2] was 9.8 nM and the “MFI (6.4 nM)” value [2] was 181000 MFI.

B7: I23RB81 (antibody, mouse IgG2a, kappa, V domains shown)
VH: DVQLQESGPGLVAPSQSLSITCTVSGFSLTSYAINWVRQPPGKGLEWLGVIWTGGGTNYNSALKSRLSISKDNSKSQLFLKMNSLQTDDTARYYCARNRDYSNYRWYFDVWGAGTSVTVSS
VL: DIVMTQSHKFMSTSVGDRVSIICKASQDVSTAVAWYQQKPGQSPKLLIYSASYRYTGVPDRFTGSGSGTDFTFTISSVQAEDLAVYYCQQHYSTPLTFGAGTRLEIKR
notes: as for B1
In the case of B7, the EC50 [1] is reported as 0.9 nM, the EC50 [2] is reported as 7.2 nM and the “MFI (6.4 nM)” value [2] is reported as 181000 MFI.

B8: I23RB77 (antibody, mouse IgG2a, kappa, V domains shown)
VH: DVQLQESGPGLVAPSQSLSITCTVSGFSLSRYSVHWVRQPPGKGLEWLGMIWGSGSTDYNSALKSRLSINKDNSKSQVFLKMNSLQTDDTAMYYCARVYYGGSPYAMDYWGQGTTVTVSS
VL: DIVMTQSPASLALSLGQRATISCRASESVDSYGNSFMHWYQQKPGQPPKLLIYLASNLESGVPARFSGSGSRTDFTLTIDPVEADDAAIYYCQQNNEEPNTFGAGTKLEMKR
notes: as for B1
With B8 the EC50 [1] was 0.2 nM, the EC50 [2] was 4.8 nM and the “MFI (6.4 nM)” value [2] was 184000 MFI.

B9: I23RB74 (antibody, mouse IgG2a, kappa, V domains shown)
VH: DVQLQESGPGLVKPSQSLSLTCSVTGYSITSGYYWNWIRQFPGNKLEWMGYISYDGSFNYNPSLKNRLSITRDTSMNQFFLKLNSVTSEDTATYYCARAEIYYDYDGDFDYWGQGTTLTVSS
VL: DIVLTQSPASLAVSLGQRATISCRASKSVSTSGSNFLHWYQQKPGQPPKLLIYFASNLESGVPARFSGSGSGTDFTLNIHPVEEEDAATYYCQHSRELPHTFGAGTKLELKR
notes: as for B1
B9 was tested, and the EC50 [1] was 0.3 nM, the EC50 [2] was 13 nM and the “MFI (6.4 nM)” value [2] was 185000 MFI.

B10: I23RB73 (antibody, mouse IgG2a, kappa, V domains shown)
VH: EVQLQQSGAELVKPGASVKISCKASGYTFTDHAIHWVKQRPEQGLEWIGYISLGNGDIKYSEKFRGKATLTADKTSNTAYMQLNSLTSEDSAVYFCKRSRVLRWTTYWYFDVWGAGTSVTVSS
VL: DIVMTQSHKFMSTSVGDRVSITCKASQDVSTAVAWYQQKPGQSPKLLIYWASTRLTGVPDRFTGSGSGTDYTLTISSVQAEDLALYYCQQYYNTPLTFGAGTKLELKR
notes: as for B1
B10 was tested, and the EC50 [1] was 1.8 nM, the EC50 [2] was 11.6 nM and the “MFI (6.4 nM)” value [2] was 158000 MFI.

B11: I23RB71 (antibody, mouse IgG2a, kappa, V domains shown)
VH: DVQLQESGPDLVKPSQSLSLTCTVTDYSITRGYNWHWIRQFPGNKLEWMGYIHYSGSTNYNPSLKSRISITRDTSKNQFFLQLNSVTTEDTATYYCARQYGLKAMDYWGQGTSVTVSS
VL: DIVMTQSHKFMSTSVGDRVSITCKASQDVITAVAWYQQKPGQSPKLLIYSASYRYTGVPDRFTGSGSGTDFTFTISSVQAEDLAVYFCQQHFGTPYTFGSGTKLEMKR
notes: as for B1
In the case of B11, the EC50 [1] is reported as roughly 6.7 nM, the EC50 [2] is reported as 3.4 nM and the “MFI (6.4 nM)” value [2] is reported as 110000 MFI.

B12: I23RB61 (antibody, mouse IgG2a, kappa, V domains shown)
VH: DVQLQESGAELVKPGASVKLSCKSFDYTFTSFDINWMKQRPGQGLEWIGWIFPGSGTTNYNEKFKGKATLTADKSSSTAYMHLTSLTSEDSAVYFCARRLTGTRYFDVWGTGTTLTVSS
VL: DIQMTQSHKFLSTSVGDRITITCKASQDVITAVAWYQQKSGQSPKLLIYWASTRHTGVPDRFTGSGSGTDYTLTISNVQAEDLALYYCQQHYTTPPTFGAGTKLELKR
notes: as for B1
For B12, the EC50 [1] was 0.6 nM, the EC50 [2] was greater than 50 nM and the “MFI (6.4 nM)” value [2] was 118000 MFI.

B13: I23RB60 (antibody, mouse IgG2a, kappa, V domains shown)
VH: DVQLQESGPELVKPGDSVKMSCEASGYTFTDYYIDWVKQSHGKSLEWIGYIYPNNGGISFNQKFEGKATLTVDKSSSTAYMELHSLTSEDSAVYYCAREKLRGRDYWGQGTTLTVSS
VL: DIVMTQSTSSLSASLGDRVTISCRASQDIRNNLNWYQQKPDGTVKLLIFYSSRLHSGVPSRFSGSGSGTDYSLTISNLEQEDIATYFCQQGHTLPWTFGAGTKLELKR
notes: as for B1
For B13, the EC50 [1] was 0.6 nM, the EC50 [2] was 27.7 nM and the “MFI (6.4 nM)” value [2] was 93700 MFI.

B14: I23RB58 (antibody, mouse IgG2a, kappa, V domains shown)
VH: EVKLVESGGGLVKPGGSLKLSCAASGFSFIIYTMSWVRQTPEKRLEWVAYITSGGGITYYPDSVKGRFTISRDNARNTLYLQMSSLRSEDTAMYYCARHEGDYYDDYYRIGYAMDYWGQGTSVTVSS
VL: DIVMTQTPASLAVSLGQRATISCRASESVDSYGNSFMHWYQQKPGQPPKLLIYRASNLESGIPARFSGSGSRTDFTLTINPVEADDVATYYCQQSNEDPLTFGAGTKLEMKR
notes: as for B1
In the case of B14, the EC50 [1] is reported as 23.1 nM, the EC50 [2] is reported as 11.6 nM and the “MFI (6.4 nM)” value [2] is reported as 150000 MFI.

B15: I23RB39 (antibody, mouse IgG2a, kappa, V domains shown)
VH: EVQLQQSGPELVKPGAPVKISCKASGYTFTNYYIHWVKQRPGQGLEWIGYIYPGNGGTAYNQKFKDKATLTADNPSSTAYMQLSSLTSEDSAVYFCARSRGGSRNYFDYWGQGTTLTVSS
VL: DIQMTQSHKFMSTSVGDRVSITCKASQDVSTAVAWYQQKPGQSPKLLIYSAFYRYTGVPDRFTGSGSGTDFTFTISSVQAEDLAVYYCQQHYSSPRTFGAGTKLELKR
notes: as for B1
B15 was tested, and the EC50 [1] was 0.3 nM, the EC50 [2] was 3.8 nM and the “MFI (6.4 nM)” value [2] was 277000 MFI.
